{"source": "patent US20180271994A1", "about": "(published 2018)", "molecules": {"B1": {"name": "anti-MUC18 HscFv-displaying phage (scFv)", "scFv": "GRGALVESGPGLVKPSETLFLTCTVSGGSISSYYWSWIRQPAGKGLEWIAYIYYSGSTNYNPSLKSRVTISVDTSNNQFSLKLSSVTAADTAVYYCAKLTAAGGHFDPWGQGTLVTVSSGGGGSGGGGSGGGGSDIVMTQSPSSLSASIGDRVTITCRASQGISNFLAWFQQKPGKAPKSLIYAASSLQSGVPSKFSGSGSGTDFTLAISSLQPEDFATYYCLQDSDYPLTFGGGTKLEIKR"}, "B2": {"name": "anti-MUC18 human immunotoxin (other)", "chain": "GRGALVESGPGLVKPSETLFLTCTVSGGSISSYYWSWIRQPAGKGLEWIAYIYYSGSTNYNPSLKSRVTISVDTSNNQFSLKLSSVTAADTAVYYCAKLTAAGGHFDPWGQGTLVTVSSGGGGSGGGGSGGGGSDIVMTQSPSSLSASIGDRVTITCRASQGISNFLAWFQQKPGKAPKSLIYAASSLQSGVPSKFSGSGSGTDFTLAISSLQPEDFATYYCLQDSDYPLTFGGGTKLEIKRASGGPEGGSRHRQPRGWEQLADVVSLTCPVAAGECAGPADSGDALLERNYPTGAEFLGDGGAISFSTRGTQNWTVERLLQAHRQLEEGGYVFVGYHGTFLEAAQSIVFGGVRARSQDLDAIWAGFYIAGDPALAYGYAQDQEPDAAGRIRNGALLRVYVPRSSLPGFYATGLTLAAPEAAGEVERLIGHPLPLRLDAITGPEEAGGRLETILGWPLAERTVVIPSAIPTDPRNVGGDLDPSSIPDSEAAISALPDYASQPGKPPKDEL"}}, "key": {"[1]": {"molecular_target": "immunodominant epitope of the MUC18 antigen", "assay": "phage ELISA, peptide coated at 100 ug/ml (control phage)"}, "[2]": {"molecular_target": "immunodominant epitope of the MUC18 antigen", "assay": "phage ELISA, peptide coated at 100 ug/ml"}, "[3]": {"molecular_target": "immunodominant epitope of the MUC18 antigen", "assay": "phage ELISA, peptide well against negative control well"}, "unrelated peptide": {"molecular_target": "unrelated peptide", "assay": "phage ELISA, well with unrelated peptide (control)"}, "MUC18 antigen": {"molecular_target": "T1, MUC18 antigen (human, UniProt P43121 24-646)", "T1 sequence (looked up)": "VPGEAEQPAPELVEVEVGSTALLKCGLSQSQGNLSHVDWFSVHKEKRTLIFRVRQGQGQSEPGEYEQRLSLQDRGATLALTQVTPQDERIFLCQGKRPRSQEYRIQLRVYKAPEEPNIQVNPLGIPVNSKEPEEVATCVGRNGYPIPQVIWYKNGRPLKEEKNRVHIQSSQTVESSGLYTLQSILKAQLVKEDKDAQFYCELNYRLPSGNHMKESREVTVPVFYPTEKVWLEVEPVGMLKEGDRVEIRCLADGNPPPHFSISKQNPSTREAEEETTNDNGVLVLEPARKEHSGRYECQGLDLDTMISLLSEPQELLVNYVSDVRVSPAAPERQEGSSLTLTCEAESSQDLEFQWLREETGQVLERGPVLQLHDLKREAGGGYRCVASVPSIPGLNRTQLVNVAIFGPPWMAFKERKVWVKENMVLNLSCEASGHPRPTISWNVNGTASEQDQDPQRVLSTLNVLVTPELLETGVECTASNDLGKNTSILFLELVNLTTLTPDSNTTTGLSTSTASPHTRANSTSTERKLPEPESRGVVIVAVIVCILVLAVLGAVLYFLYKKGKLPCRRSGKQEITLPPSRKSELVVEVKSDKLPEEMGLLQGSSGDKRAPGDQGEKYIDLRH", "assay": "cell-based or functional assay"}}}
{"molecule": "unrelated phage", "values": [{"measurement": "mean absorbance (OD 450 nm)", "setting": "[1]", "result": 0.17, "unit": "OD450"}]}
{"molecule": "B1", "values": [{"measurement": "mean absorbance (OD 450 nm)", "setting": "[2]", "result": 1.6, "unit": "OD450"}, {"measurement": "fold OD over negative control well", "setting": "[3]", "result": 4, "unit": "fold"}, {"measurement": "mean absorbance (OD 450 nm)", "setting": "unrelated peptide", "result": 0.1, "unit": "OD450"}]}
{"molecule": "B2", "values": [{"measurement": "IC50, MTT assay, A375 cells, 24 hours", "setting": "MUC18 antigen", "result": "~2.1", "unit": "nM"}, {"measurement": "IC50, MTT assay, DU145 cells, 24 hours", "setting": "MUC18 antigen", "result": "~6.1", "unit": "nM"}]}
